Results on six molecules are retold here after patent publication US10583184B2, “Artificial antigen produced using partial sequence of enolase protein originated from plasmodium falciparum, and method for producing same” (priority 2014, dated 2020).

Entries after “also recorded” stand apart in the source; their conditions may differ.

For assay [1], the target named is T1, plasminogen (Homo sapiens, UniProt P00747). As to the kind of experiment: Reactivity of peptide library with plasminogen, Dot-Blot method. The class given is binding. Conditions: peptide immobilized on nitrocellulose film; HRP-labeled anti-plasminogen antibody; DAB staining. The source says: FIG. 11 is a photograph after staining with DAB reagent in a Dot-Blot measurement, for detecting the binding between each of the peptide 1 to peptide 8 and plasminogen. The numbers 1 to 8 in FIG. 11 indicate the locations at which peptide solutions of the peptide 1 to peptide 8 were dropped, respectively, and P indicates the locations at which plasminogen solutions (positive control) were dropped.
(§1) A peptide library of peptides 1 to 8 (SEQ ID NOs: 10 to 17), which are divided peptides obtained from a 35-residue sequence of 254th to 288th residues (FIG. 2) of the amino acid sequence of the parasite enolase, was used. Each of the peptides of the peptide library was allowed to react with plasminogen using a Dot-Blot method and an ELISA method, thereby carrying out a search for an amino acid sequence recognized by plasminogen.
The reactivity of the peptides was measured by a Dot-Blot method, using a 10% acetonitrile solution of each of 8 types of peptides, peptide 1 to peptide 8, by the following steps in the following order; (a) immobilization of each peptide on a nitrocellulose film (pore size: 0.45 μm); (b) reaction with plasminogen in a plasminogen solution; (c) reaction with an HRP-labeled anti-plasminogen antibody; and (d) DAB staining.

The target in assay [2] is T1, plasminogen. Description: Reactivity of peptide library with plasminogen, ELISA method. The class given is binding. To be noted: peptide immobilized in wells; plasminogen 1 μg/well; HRP modified anti-plasminogen antibody, TMB staining. The method, then:
FIG. 12 is a photograph of a plate after staining with TMB reagent in an ELISA measurement, for detecting the binding between each of the peptide 1 to peptide 8 and plasminogen. Each of the peptide 1 to peptide 8 was immobilized in each of the wells of the plate, and then allowed to react with plasminogen. Detection of binding was carried out by staining with an HRP modified-anti-plasminogen antibody and TMB reagent.
FIG. 13 is a graph of absorbance data (at 450 nm) taken after staining with TMB in an ELISA measurement, for detecting the binding between each of the peptide 1 to peptide 8 and plasminogen (plasminogen concentration: 1 μg/well).
as §1
Next, in order to digitize and quantify the reaction of the peptide library with plasminogen, the detection of binding by an ELISA method was carried out.
In general terms: In an ELISA, binding on a coated surface is turned into a signal by an enzyme label.

Another assay concerns P. falciparum. Description: Vaccine trial in owl monkeys. Format: in vivo. Conditions: 13 owl monkeys, vaccinated. The method, then: Subsequently, a vaccine trial was carried out using as antigens enolase derived from P. falciparum and an AD22 partial sequence peptide, and using 13 owl monkeys. The changes in the percentage of parasitism of P. falciparum in red blood cells in the peripheral blood of the owl monkeys were plotted.
The antigen which causes owl monkeys to acquire immunity is a chemically synthesized peptide antigen having a tandem structure in which four 22-residue peptides (AD22) are tandemly arranged, and has a structure represented by the following Structural Formula (A). Although Xaa in the Structural Formula (A) of the antigen is arbitrary, a Cys(Acm) residue, which is a Cys residue whose side chain is protected by an acetamidomethyl group, is used at this time.

T1 sequence (P00747 20-810 limits assumed): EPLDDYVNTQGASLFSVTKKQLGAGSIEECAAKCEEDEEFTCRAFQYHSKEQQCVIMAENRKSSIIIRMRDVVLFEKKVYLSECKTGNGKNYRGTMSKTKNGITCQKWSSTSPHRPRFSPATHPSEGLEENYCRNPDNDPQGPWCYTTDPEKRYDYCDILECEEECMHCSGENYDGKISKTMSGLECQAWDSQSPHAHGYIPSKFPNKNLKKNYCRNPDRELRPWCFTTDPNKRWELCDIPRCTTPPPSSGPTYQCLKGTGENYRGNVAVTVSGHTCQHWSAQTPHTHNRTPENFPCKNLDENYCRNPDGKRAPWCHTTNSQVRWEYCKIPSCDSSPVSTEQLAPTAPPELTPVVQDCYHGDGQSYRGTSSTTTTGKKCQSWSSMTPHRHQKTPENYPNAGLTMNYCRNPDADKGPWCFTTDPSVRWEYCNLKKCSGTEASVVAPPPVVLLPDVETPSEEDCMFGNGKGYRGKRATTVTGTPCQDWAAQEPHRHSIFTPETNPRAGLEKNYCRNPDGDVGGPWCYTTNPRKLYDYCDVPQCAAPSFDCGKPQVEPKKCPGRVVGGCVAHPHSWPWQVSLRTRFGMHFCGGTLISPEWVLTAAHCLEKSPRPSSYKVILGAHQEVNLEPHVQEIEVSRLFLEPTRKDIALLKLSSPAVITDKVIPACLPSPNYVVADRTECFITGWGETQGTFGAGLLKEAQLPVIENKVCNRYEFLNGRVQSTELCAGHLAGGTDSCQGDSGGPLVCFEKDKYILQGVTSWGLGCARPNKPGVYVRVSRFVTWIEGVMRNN

Take “2: divided peptide from the 254th to 288th residue sequence of parasite enolase; SEQ ID NO: 11 (FYNSENKTYDK; listed as Plasmodium falciparum) [compound 2]”: the “binding of peptide chains with plasminogen” value (shortened to “binding of peptide chains”) in the assay with plasminogen [1] was “binding of peptide chains with plasminogen was observed”. For the molecule “5: 10-residue divided peptide from the 254th to 288th residue sequence of parasite enolase; SEQ ID NO: 14 (PNNDKSLVKTK; listed as Plasmodium falciparum) [compound 5]”, the “reactivity with plasminogen (absorbance at 450 nm)” value (“reactivity with plasminogen” for short) with plasminogen [2] was “relatively high reactivity with plasminogen”. Turning to “peptide 3: 10-residue divided peptide of parasite enolase, NKT sequence then YDLDFKT sequence; SEQ ID NO: 12 (NKTYDLDFKTK; listed as Plasmodium falciparum)”, the “binding of peptide chains” value with plasminogen [1] is reported as “binding of peptide chains with plasminogen was observed”. Further, the “reactivity with plasminogen” value with plasminogen [2] is listed as “relatively high reactivity with plasminogen; also recorded: highest reactivity with plasminogen, among the 10-residue peptides”. The like results for “peptide 7: 25-residue peptide sequence from the 254th to 288th residues of parasite enolase; SEQ ID NO: 16 (VAASEFYNSENKTYDLDFKTPNNDK; listed as Plasmodium falciparum)” were, in that order, “binding of peptide chains with plasminogen was observed” and “high reactivity with plasminogen”. Consider “peptide 8: 35-residue peptide sequence, 254th to 288th residues of parasite enolase; SEQ ID NO: 17 (VAASEFYNSENKTYDLDFKTPNNDKSLVKTGAQLVK; listed as Plasmodium falciparum)”, for which, in the assay with plasminogen [1], the “binding of peptide chains” value is recorded as “binding of peptide chains with plasminogen was observed”. Besides, the “reactivity with plasminogen” value in the assay with plasminogen [2] is listed as “high reactivity with plasminogen”.

B1: enolase derived from P. falciparum: P. falciparum-derived enolase, a glycolytic enzyme, used as vaccine antigen (protein, UniProt Q8IJN7 1-446, looked up)
Enolase: MAHVITRINAREILDSRGNPTVEVDLETNLGIFRAAVPSGASTGIYEALELRDNDKSRYLGKGVQKAIKNINEIIAPKLIGMNCTEQKKIDNLMVEELDGSKNEWGWSKSKLGANAILAISMAVCRAGAAANKVSLYKYLAQLAGKKSDQMVLPVPCLNVINGGSHAGNKLSFQEFMIVPVGAPSFKEALRYGAEVYHTLKSEIKKKYGIDATNVGDEGGFAPNILNANEALDLLVTAIKSAGYEGKVKIAMDVAASEFYNSENKTYDLDFKTPNNDKSLVKTGAQLVDLYIDLVKKYPIVSIEDPFDQDDWENYAKLTAAIGKDVQIVGDDLLVTNPTRITKALEKNACNALLLKVNQIGSITEAIEACLLSQKNNWGVMVSHRSGETEDVFIADLVVALRTGQIKTGAPCRSERNAKYNQLLRIEESLGNNAVFAGEKFRLQLN
B1: in the assay with P. falciparum, the “percentage of parasitism of P. falciparum in red blood cells in the peripheral blood” value is given as “a rapid increase in the percentage of parasitism was in inhibited”.
